# In patent publication US20130158095:
# Target: TK substrate 1 (HTRF KinEASE-TK kit; Cisbio Inc.)
protein,measurement,value
EML4-ALK fusion polypeptide v1 having the FLAG tag at the N-terminus (protein) GFAGSLDDSISAASTSDVQDRLSALESRVQQQEDEITVLKAALADVLRRLAISEDHVASVKKSVSSKGQPSPRAVIPMSCITNGSGANRKPSHTSAVSIAGKETLSSAAKSGTEKKKEKPQGQREKKEESHSNDQSPQIRASPSPQPSSQPLQIHRQTPESKNATPTKSIKRPSPAEKSHNSWENSDDSRNKLSKIPSTPKLIPKVTKTADKHKDVIINQEGEYIKMFMRGRPITMFIPSDVDNYDDIRTELPPEKLKLEWAYGYRGKDCRANVYLLPTGEIVYFIASVVVLFNYEERTQRHYLGHTDCVKCLAIHPDKIRIATGQIAGVDKDGRPLQPHVRVWDSVTLSTLQIIGLGTFERGVGCLDFSKADSGVHLCVIDDSNEHMLTVWDWQKKAKGAEIKTTNEVVLAVEFHPTDANTIITCGKSHIFFWTWSGNSLTRKQGIFGKYEKPKFVQCLAFLGNGDVLTGDSGGVMLIWSKTTVEPTPGKGPKVYRRKHQELQAMQMELQSPEYKLSKLRTSTIMTDYNPNYCFAGKTSSISDLKEVPRKNITLIRGLGHGAFGEVYEGQVSGMPNDPSPLQVAVKTLPEVCSEQDELDFLMEALIISKFNHQNIVRCIGVSLQSLPRFILLELMAGGDLKSFLRETRPRPSQPSSLAMLDLLHVARDIACGCQYLEENHFIHRDIAARNCLLTCPGPGRVAKIGDFGMARDIYRASYYRKGGCAMLPVKWMPPEAFMEGIFTSKTDTWSFGVLLWEIFSLGYMPYPSKSNQEVLEFVTSGGRMDPPKNCPGPVYRIMTQCWQHQPEDRPNFAIILERIEYCTQDPDVINTALPIEYGPLVEEEEKVPVRPKDPEGVPPLLVSQQAKREEERSPAAPPPLPTTSSGKAAKKPTAAEVSVRVPRGPAVEGGHVNMAFSQSNPPSELHRVHGSRNKPTSLWNPTYGSWFTEKPTKKNNPIAKKEPHERGNLGLEGSCTVPPNVATGRLPGASLLLEPSSLTANMKEVPLFRLRHFPCGNVNYGYQQQGLPLEAATAPGAGHYEDTILKSKNSMNQPGP,"count of HTRF (that is, phosphorylation of the peptide substrate)",increased by about 12 times by the addition of ATP compare to no addition of ATP
